Positions count from the first letter of the chain named. Bridge positions count the residues as written; N and C are the ends. Square brackets hold non-standard residues; d marks the D form. Primed or numbered codes have the meaning given here. Glu(Bi-PEG)″ = Nδ-(N-biotinyl-3-(2-(2-(3-aminopropyloxy)-ethoxy)-ethoxypropyl)-L-glutamine, biotin-PEG linker residue; Glu(Bi-PEG) = N-terminal added Glu carrying a biotin-linker; Glu(Bi-PEG)(3) = N-terminal added Glu biotin-linker residue; Gla = N[C@@H](CC(C(=O)O)C(=O)O)C(=O)O
T1: Bi-SEQ ID NO: 1, *H**Glu(Bi-PEG)*NLERECVEETCSYEEA*NH2 (disulfide 6-11 (inferred))
T1 construct: Synthetic peptide
T1 peptide: {Glu(Bi-PEG)}-NLERECVEETCSYEEA-NH2

T2: Bi-SEQ ID NO: 4, *H**Glu(Bi-PEG)*…laTCSYEEA*NH2 (disulfide 6-11)
T2 construct: Synthetic peptide; 12-27 of mature prothrombin with Gla at 20
T2 peptide: {Glu(Bi-PEG)(3)}-NLERECVE[Gla]TCSYEEA-NH2

T3: Bi-SEQ ID NO: 3, *H**Glu(Bi-PEG)*…laEA*NH2 (disulfide 6-11; not fully specified)
T3 construct: Synthetic peptide; 12-27 of mature prothrombin with Gla at 25
T3 peptide: {Glu(Bi-PEG)″}-NLERECVEETCSY[Gla]EA-NH2

B1: monoclonal anti-PIVKA-II antibody 7A10 (antibody, V domains shown)
VH: QSLEESGGRLVTPGTPLTLTCTVSGIDLSTYAMGWVRQAPGKGLEYIGIIRSSGRTYYASWAKGRFTVSKTSSTTVDLSMTSPTTEDTATYYCYRNVSLWGQGTLVSVSS
VL: DVVMTQTPSSVEAAVGGTVTIKCQASQSIGNNLAWYQQKPGQRPNLLIYSASTLASGVPSRFRGSGSGTEFTLTISGVQCDDAATYYCQSYAGVSESVFWYSFGGGTGVVVK
notes: Recombinant rabbit IgG from B-cell cloning, expressed in HEK cells
B2: monoclonal anti-PIVKA-II antibody 9A6 (antibody, V domains shown)
VH: QSVEESGGRLITPGTPLTLTCTVSGFDLSRYAVGWVRQAPGKGLEYIGLIVSDGRTYYASWAKGRFTVSKTSSTTVDLKMTSPTAGDTATYYCYRNVSLWGQGTLVSVSS
VL: DVVMTQTPSSVEAAVGGTVTIKCQASQSIGSNLAWYQQKPGQPPKLLIYSASTLASGVPSRFSGSGSGTEFTLTFSGVQCGDAATYFCQSYAGVSANIFYYSFGGGTEVVVM
notes: as for B1
B3: monoclonal anti-PIVKA-II antibody 13H7 (antibody, V domains shown)
VH: B2 VH with I11V, G14E, V33M, V68I, T81A, A85T, G86E, S110E
VL: B2 VL with P59S, S63K, F75I, G77D, V78L, Q79E, G81A, F87Y, V94I, S102A
notes: as for B1
B4: monoclonal anti-PIVKA-II antibody 4E8 (antibody, V domains shown)
VH: B2 VH with I11V, V51T, S60N, A85T, G86E
VL: B2 VL with S9A, P40S, S56P, P59S, S76T
notes: as for B1

The binders below were run against Bi-SEQ ID NO: 2, *H**Glu(Bi-PEG)*NLERECVGlaETCSYEEA*NH2 (assay: ECL assay (Elecsys 2010), ruthenylated antibody and biotinylated peptide, streptavidin beads).

| reactivity (signal normalized to Bi-SEQ ID NO:1) [%] | Binder |
| --- | --- |
| 4 | B1 |
| 5 | B2 |
| 5 | B3 |
| 5 | B4 |

Target: T1, Bi-SEQ ID NO: 1, …
Experiment: as above
Method: (§1) An Elecsys 2010 immunoanalyzer was used to determine the reactivity of selected anti-PIVKA-II antibodies with the above peptide as follows:
(§2) 50 μL of ruthenylated anti-PIVKA-II antibody (300 ng/mL in assay buffer—s. example 2.4) were reacted with 50 μL of biotinylated peptide (2.5 ng/mL in assay buffer) and 70 μL assay-buffer in a first step, and incubated at 37° C. for 9 min. After addition of 30 μL streptavidin coated paramagnetic Elecsys® beads (0.7 mg/mL; see example 2.4) and a second incubation step (37° C., 9 min), the reaction mixture was aspirated into the measuring cell where the microparticles are magnetically captured onto the surface of the measuring-electrode. Unbound substances are removed with ProCell system-buffer (Roche Diagnostics GmbH, Germany). Application of a voltage to the electrode then induces electrochemiluminescense-based emission of light which is measured by a photomultiplier.

| reactivity (signal normalized to Bi-SEQ ID NO:1) [%] | Binder |
| --- | --- |
| 100 | B1 |
| 100 | B2 |
| 100 | B3 |
| 100 | B4 |

Target: T2, Bi-SEQ ID NO: 4, …
Experiment: as above
Method: as §1, §2

| reactivity (signal normalized to Bi-SEQ ID NO:1) [%] | Binder |
| --- | --- |
| 68 | B1 |
| 78 | B2 |
| 68 | B3 |
| 76 | B4 |

Target: T3, Bi-SEQ ID NO: 3, …
Experiment: as above
Method: as §1, §2

| reactivity (signal normalized to Bi-SEQ ID NO:1) [%] | Binder |
| --- | --- |
| 105 | B1 |
| 107 | B2 |
| 107 | B3 |
| 108 | B4 |

From US20230055005A1 (ROCHE DIAGNOSTICS OPERATIONS, published 2023)
